Results: US9725518B2, “Antibodies that bind to Jagged 1” (Cancer Research Technology Limited, priority 2013, dated 2017)
Substitutions are numbered along the chain they refer to.

B1: J1-65D chimeric: chimeric antibody with unaltered CDRs: J1-65D_VL + J1-65D_VH (antibody, V domains shown)
VL: DIQLTQSPASLSASVGETVTITCRASGNIHNYLAWYQQKQGKSPQLLVYNAKTLADDIPSRFSGSGSGTQYSLKINSLQPEDFGSYYCQHFWSAPWTFGGGTKLEIK
VH: QVQLQQPGAELVRPGASVKLSCKALGYTFTDYEMHWVKETPVHGLEWIGAIQPGGGGTAYNQKFKGKATLTADKSSSTAYMELSSLTSEDSAVYYCTRRGYDDYPFAYWGQGTLVTVSS
B2: J1-183D variant 3: humanised/de-immunised J1-183D: J1-183D_VL_1 + J1-183D_VH_3 (antibody, V domains shown)
VH: QVQLVQSGAELKKPGASVKVSCKVSGYAFTDYAIHWVRQAPGQGLEWMGIINTYYGDSKYAQKFQGRVTMTVDTSTSTAYMELSSLRSEDTAVYYCARGYDGFAYWGQGTLVTVSSASTKGP
VL: DIQMTQSPSSLSASVGDRVTITCRTSENIYSYLTWYQQKPGKAPKLLVYNAKILAAGVPSRFSGSGSGTDFTLTISSLQPEDFATYYCQHHYDIPWTFGGGTKLEIKRT
B3: J1-183D variant 14: humanised/de-immunised J1-183D: J1-183D_VL_4 + J1-183D_VH_2 (antibody, V domains shown)
VH: B2 VH with V37I
VL: B2 VL with V48I, N50H, A55D, A56S
B4: J1-183D variant 7: humanised/de-immunised J1-183D: J1-183D_VL_2 + J1-183D_VH_3 (antibody, V domains shown)
VH: B2 VH
VL: B2 VL with V48I, I53T, A56S
B5: J1-183D variant 5: humanised/de-immunised J1-183D: J1-183D_VL_2 + J1-183D_VH_1 (antibody, V domains shown)
VH: B2 VH with V37I, A61N, Q65K, G66D, T74K
VL: B2 VL with V48I, I53T, A56S
B6: J1-183D variant 10: humanised/de-immunised J1-183D: J1-183D_VL_3 + J1-183D_VH_2 (antibody, V domains shown)
VH: B2 VH with V37I
VL: B2 VL with V48I, A55D, A56S
B7: J1-183D variant 11: humanised/de-immunised J1-183D: J1-183D_VL_3 + J1-183D_VH_3 (antibody, V domains shown)
VH: B2 VH
VL: B2 VL with V48I, A55D, A56S
B8: J1-183D variant 6: humanised/de-immunised J1-183D: J1-183D_VL_2 + J1-183D_VH_2 (antibody, V domains shown)
VH: B2 VH with V37I
VL: B2 VL with V48I, I53T, A56S
B9: J1-183D variant 13: humanised/de-immunised J1-183D: J1-183D_VL_4 + J1-183D_VH_1 (antibody, V domains shown)
VH: B2 VH with V37I, A61N, Q65K, G66D, T74K
VL: B2 VL with V48I, N50H, A55D, A56S
B10: J1-183D variant 16: humanised/de-immunised J1-183D: J1-183D_VL_4 + J1-183D_VH_4 (antibody, V domains shown)
VH: B2 VH with L11V, V24A, A28T
VL: B2 VL with V48I, N50H, A55D, A56S
B11: J1-183D variant 4: humanised/de-immunised J1-183D: J1-183D_VL_1 + J1-183D_VH_4 (antibody, V domains shown)
VH: B2 VH with L11V, V24A, A28T
VL: B2 VL

tested on: not listed separately; assay: Soluble aggregates of transiently expressed antibodies; type: physicochemical; conditions: Protein A purified antibody
From the text: The protein yield of these antibodies, their levels of soluble aggregates and their binding affinity to the immunogen (J1-DE3) are illustrated in (Table 6).

Molecule	% soluble aggregate [%]
B1	0
B2	2.87
B3	3.02
B4	3.92
B5	4.38
B6	2.89
B7	2.5
B8	4.6
B9	3.43
B10	0.72
B11	0.85

biological target: T1, N1 binding to cell surface expressed hJ1 (Homo sapiens, UniProt P78504); assay: Notch binding blocking assay (FACS): N1 EGF11-13 beads staining human J1-expressing cells; parameters: key: +: Complete blocking; X: No blocking; conditions: final antibody concentration 0.2 μg/ml
T1 construct: cell expressed full length human J1 (hJ1; HEK293 transfectants); expressed in transfected cells; host or cells: HEK293
T1 sequence (P78504 34-1218): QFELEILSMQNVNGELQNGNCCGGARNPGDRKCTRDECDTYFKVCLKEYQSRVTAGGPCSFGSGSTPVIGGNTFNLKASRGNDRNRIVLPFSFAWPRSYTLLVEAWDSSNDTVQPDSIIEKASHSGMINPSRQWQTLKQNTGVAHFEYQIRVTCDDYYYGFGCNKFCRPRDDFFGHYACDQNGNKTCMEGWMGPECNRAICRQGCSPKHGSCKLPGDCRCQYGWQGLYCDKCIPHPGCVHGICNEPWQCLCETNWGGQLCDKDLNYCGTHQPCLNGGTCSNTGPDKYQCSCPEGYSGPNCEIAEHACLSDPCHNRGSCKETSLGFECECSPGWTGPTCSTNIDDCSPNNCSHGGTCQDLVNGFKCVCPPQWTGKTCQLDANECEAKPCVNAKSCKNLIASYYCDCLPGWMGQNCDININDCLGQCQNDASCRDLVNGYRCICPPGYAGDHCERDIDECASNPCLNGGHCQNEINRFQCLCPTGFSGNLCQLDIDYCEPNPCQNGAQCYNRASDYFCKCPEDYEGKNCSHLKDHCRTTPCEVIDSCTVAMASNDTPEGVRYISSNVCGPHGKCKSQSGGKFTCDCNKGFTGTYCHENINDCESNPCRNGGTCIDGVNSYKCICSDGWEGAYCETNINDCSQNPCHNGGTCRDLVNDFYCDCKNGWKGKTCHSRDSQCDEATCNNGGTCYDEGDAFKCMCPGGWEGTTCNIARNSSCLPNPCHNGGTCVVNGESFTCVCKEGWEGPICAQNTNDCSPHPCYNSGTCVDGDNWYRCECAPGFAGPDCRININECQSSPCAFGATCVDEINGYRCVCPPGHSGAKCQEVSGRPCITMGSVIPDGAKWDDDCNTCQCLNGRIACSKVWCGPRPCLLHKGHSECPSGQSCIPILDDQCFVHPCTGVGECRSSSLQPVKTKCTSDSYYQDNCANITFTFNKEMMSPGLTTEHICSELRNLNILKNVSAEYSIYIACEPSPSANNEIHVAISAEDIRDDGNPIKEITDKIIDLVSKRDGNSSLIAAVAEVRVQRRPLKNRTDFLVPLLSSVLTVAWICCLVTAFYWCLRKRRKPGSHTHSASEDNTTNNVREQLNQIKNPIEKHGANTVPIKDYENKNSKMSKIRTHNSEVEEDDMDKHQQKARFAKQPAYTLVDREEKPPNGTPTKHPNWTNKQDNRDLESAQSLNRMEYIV
Procedure: To functionally identify mAbs with the capacity to disrupt the J1-N1 protein:protein interaction, hybridoma culture supernatants were tested in a FACS-based binding assay. Biotinylated soluble human N1 EGF11-13 recombinant protein was bound to avidin-coated beads and used to stain J1-expressing cells in the presence or absence of each mAb that recognised cell surface hJ1 by FACS. […] The four blocking antibodies of the invention were also able to block the binding of recombinant […] to a biotin-tagged J1 DSL-EGF3 recombinant protein in an ELISA assay (FIG. 1B). […] The four blocking mAbs of the invention were purified from serum-free culture supernatants and equal concentrations of purified antibodies were used to compare their activity in subsequent assays (unless hybridoma supernatant was specified). Sequence conservation across the DSL domain raised the possibility that the J1 mAbs may also be able to bind the Jagged 2 (J2) protein. Antibody binding specificity was initially tested by immunocytochemical labelling of cytospin samples of hJ1 and hJ2 transfectants (FIG. 2). All antibodies stained J1 transfectants but none stained the J2 transfected cells, and J2 expression in the same experiment was confirmed using a commercial anti-J2 antibody. The specificity of the purified mAbs was further investigated in mammalian cells transfected with hJ2, human Delta-like ligand 4 (hDLL4), or mJ1 (FIG. 3). Transfectants were FACS stained with 10 μg/ml of each of the four blocking mAbs.
To test the blocking efficiencies of the J1 mAbs, purified mAbs were titrated to determine the concentration required to block recombinant N1 binding to cell surface expressed hJ1. Beads coated with a bacterially-expressed N1 EGF11-13 protein were used to stain the hJ1-expressing cells in the presence of various concentrations of mAbs.
The FACS-based binding assay using biotinylated soluble human N1 EGF11-13 recombinant protein bound to avidin-coated fluorescent beads to stain J1-expressing cells was performed using a dilution series of each variant mAb to test their ability to block J1 binding to N1 by FACS (Table 7). […] Thus 12/16 J1-65D1 variants V1-12 and all J1-183D variants have the desired binding and blocking activity.
Human N1 EGF11-13 (411-526) was expressed in E. coli, refolded in vitro and labelled with purple fluorescent avidin-coated beads (Spherotech) as previously described. HEK293 cells transfected with human J1 or B16F10 cells transfected with mouse J1 were stained with N1 fluorescent beads in the presence of J1 antibody supernatants or purified antibody (murine, chimeric or humanised) diluted in HBBS/10% FCS. Cells were washed and re-suspended in staining buffer before being analysed with a FACSCalibur and data analysis with CellQuest. HEK293 cells transfected with human Jagged 2 and B16F10 cells transfected with human and mouse DLL4 were stained similarly to test blocking specificity.

Blocking of Notch1 binding to cell surface Jagged 1	Molecule
X	B1
X	B2
X	B3
X	B4
X	B5
X	B6
X	B7
X	B8
X	B9
X	B10
X	B11

same assay, conditions: final antibody concentration 0.4 μg/ml

Blocking of Notch1 binding to cell surface Jagged 1	Molecule
+ (Complete blocking)	B1
+ (Complete blocking)	B2
+ (Complete blocking)	B3
+ (Complete blocking)	B4
+ (Complete blocking)	B5
+ (Complete blocking)	B6
+ (Complete blocking)	B7
+ (Complete blocking)	B8
+ (Complete blocking)	B9
+ (Complete blocking)	B10
+ (Complete blocking)	B11

same assay, conditions: final antibody concentration 0.6 μg/ml

Blocking of Notch1 binding to cell surface Jagged 1	Molecule
+ (Complete blocking)	B1
+ (Complete blocking)	B2
+ (Complete blocking)	B3
+ (Complete blocking)	B4
+ (Complete blocking)	B5
+ (Complete blocking)	B6
+ (Complete blocking)	B7
+ (Complete blocking)	B8
+ (Complete blocking)	B9
+ (Complete blocking)	B10
+ (Complete blocking)	B11

same assay, conditions: final antibody concentration 1.0 μg/ml

Blocking of Notch1 binding to cell surface Jagged 1	Molecule
+ (Complete blocking)	B1
+ (Complete blocking)	B2
+ (Complete blocking)	B3
+ (Complete blocking)	B4
+ (Complete blocking)	B5
+ (Complete blocking)	B6
+ (Complete blocking)	B7
+ (Complete blocking)	B8
+ (Complete blocking)	B9
+ (Complete blocking)	B10
+ (Complete blocking)	B11
